# From US20070087448
# Positions count from the first letter of the chain named.
# T1: human apolipoprotein C1, common form (m/z=6631)
# T1 chain: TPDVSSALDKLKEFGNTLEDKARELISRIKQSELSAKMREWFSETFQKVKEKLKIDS
# T2: T45S variant of human apolipoprotein C1 (low mass variant, m/z=6617/6618)
# T2 chain: T1 chain with T45S
# B1: hog kidney dipeptidyl peptidase IV (DPPase IV), purchased from the Sigma Chemical Company (protein)
# chain: DSRRTYTLTDYLKSTFRVKFYTLQWISDHEYLYKQENNILLFNAEYGNSSIFLENSTFDELGYSTNDYSVSPDRQFILFEYNYVKQWRHSYTASYDIYDLNKRQLITEERIPNNTQWITWSPVGHKLAYVWNNDIYVKNEPNLSSQRITWTGKENVIYNGVTDWVYEEEVFSAYSALWWSPNGTFLAYAQFNDTEVPLIEYSFYSDESLQYPKTVRIPYPKAGAENPTVKFFVVDTRTLSPNASVTSYQIVPPASVLIGDHYLCGVTWVTEERISLQWIRRAQNYSIIDICDYDESTGRWISSVARQHIEISTTGWVGRFRPAEPHFTSDGNSFYKIISNEEGYKHICHFQTDKSNCTFITKGAWEVIGIEALTSDYLYYISNEHKGMPGGRNLYRIQLNDYTKVTCLSCELNPERCQYYSASFSNKAKYYQLRCFGPGLPLYTLHSSSSDKELRVLEDNSALDKMLQDVQMPSKKLDVINLHGTKFWYQMILPPHFDKSKKYPLLIEVYAGPCSQKVDTVFRLSWATYLASTENIIVASFDGRGSGYQGDKIMHAINRRLGTFEVEDQIEATRQFSKMGFVDDKRIAIWGWSYGGYVTSMVLGAGSGVFKCGIAVAPVSKWEYYDSVYTERYMGLPTPEDNLDYYRNSTVMSRAENFKQVEYLLIHGTADDNVHFQQSAQLSKALVDAGVDFQTMWYTDEDHGIASNMAHQHIYTHMSHFLKQCFSLP
# Legend:
# [1] = target: plasma peptide at m/z=5082±4
# [2] = target: T1, human apolipoprotein C1, common form …
# [3] = target: T2, T45S variant of human apolipoprotein C1 …
protein,measurement,setting,value
B1,MALDI-TOF profile after 2 hours of digestion of diluted plasma with 1 unit of enzyme,[1],The 5082 peak had been completely digested to the 4885 peak
same,MALDI-TOF profile after incubation of human plasma with the enzyme (conversion of the 6631 peak to the 6433 peak),[2],The enzyme converted all of the material in the peak at 6631 to material in the 6433 peak
same,"rate of enzyme cleavage (m/z=6631 conversion to m/z=6433), reference for the T45S variant",[2],degradation of the more common form of apolipoprotein C1 (m/z=6631 conversion to m/z=6433)
same,rate of enzyme cleavage (m/z=6618 conversion to m/z=6420) relative to the common form of apolipoprotein C1,[3],3.1 times the rate of degradation of the more common form of apolipoprotein C1
